This note sets out measurements from patent publication CN113072642A (FUZHOU MAIXIN BIOTECHNOLOGY DEV CO LTD, dated 2021).

The target of this assay is T1, OCT3/4蛋白 (in tissue sections, immunohistochemistry) (human, UniProt Q01860 1-360, limits assumed).
T1 construct: Endogenous antigen in tumour and normal tissue chips; also called OCT3/4抗原
Nature of the assay: immunohistochemistry on tumour tissue chip.

T1 sequence (Q01860 whole entry): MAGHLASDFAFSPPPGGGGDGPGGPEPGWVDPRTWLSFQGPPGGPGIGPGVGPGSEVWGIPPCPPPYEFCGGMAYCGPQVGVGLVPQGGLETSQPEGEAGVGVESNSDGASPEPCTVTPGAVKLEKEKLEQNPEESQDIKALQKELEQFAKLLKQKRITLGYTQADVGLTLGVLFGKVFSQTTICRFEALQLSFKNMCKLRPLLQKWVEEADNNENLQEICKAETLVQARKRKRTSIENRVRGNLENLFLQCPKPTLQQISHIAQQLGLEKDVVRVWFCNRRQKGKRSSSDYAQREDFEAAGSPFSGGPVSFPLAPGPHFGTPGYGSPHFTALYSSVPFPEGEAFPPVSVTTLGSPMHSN

B1: 41B1细胞株所分泌的抗OCT3/4蛋白单克隆抗体 (antibody, mouse IgG2b, V domains shown)
VH: VKLQESGGGLVKPGGSLKLSCTASGFTFSTYAMSWVRQTPEKRLEWVAAINSNGGNTYYPDTVKDRFTISRDNAKNTLYLQMSSLRSDDTALYYCARDGYDYWGQGTTLTVSS
VL: DIVMTQDELSLPVSLGDQASISCRSSQSLVHSNGVTYLFWHLQRPGQSPKLLIYRVSNRFSGVPDRFSGSGSGTDFTLKISRVEAEDLGVYFCFQGTHVPFTFGTGTKLEIK
notes: also called OCT3/4(41B1); 41B1分泌的OCT3/4
Take B1: the binding result was “binds”.
